Measured values published in publication PMC5087089, “Reconstituted B cell receptor signaling reveals carbohydrate-dependent mode of activation” (Scientific Reports, 2016).

Target: T1, wildtype (WT) HA trimer from A/New Caledonia/20/1999 (H1 1999 NC), soluble trimeric format (influenza A virus A/New …, UniProt Q6WG00)
T1 construct: also called wildtype HA
Experiment: ELISA
Conditions: both partners purified

B1: CH65, HA receptor binding site specific monoclonal antibody (antibody, V domains shown)
VH: EVQLVQSGAEVKKPGASVKVSCKASGYTFTDYHINWVRQAPGQGLEWMGWIHPNSGDTNYAQKFQGWVTMTRDTAISTAYMEVNGLKSDDTAVYYCARGGLEPRSVDYYYYGMDVWGQGTTVTVSS
VL: SVLTQPPSVSVAPGQTARITCGGNDIGRKSVHWNQQKPGQAPVLVVCYDSDRPSGIPERFSGSNSGNTATLTISRVEAGDEADYYCQVWDSSSDHVIFGGGTKLTVL
**Q.** Does B1 bind?
**A.** binds
